Test results as given in publication PMC3686692 (PLoS ONE, 2013).

Assays:
hemoglobin [1] = settings: PK-PD model estimates from different populations and structural models; cited from earlier work
From the text: The estimates of red blood cell life span (67.5 days) obtained from this analysis are consistent with previously reported values in the literature (60 to 65 days in dialysis patients), [17].

[2] = cited from earlier work
hemoglobin [3] = assay: Population PK-PD model (modified precursor-dependent lifespan indirect response) of hemoglobin levels; type: in vivo, human; settings: final PK-PD model
From the text: (§1) These studies were: AFX01-02 (NCT00109291) [data on file], AFX01-03 (NCT00228449), AFX01-04 (NCT00228436) and AFX01-07 (NCT00434330) [data on file]). Data were also utilized from one Phase 3 study, AFX01-14 (NCT00597584) conducted in hemodialysis patients. All plasma concentration-time data obtained in Phase 2 (with frequent PK and PD sampling scheme) [7, 8, AFX01-2, AFX01-07] and Phase 3 studies, with sparse PK and frequent PD sampling schemes, were used for the development of the PK model.
The concentration of hemoglobin was measured using a standard laboratory method in a Clinical Laboratory Improvement Amendments certified central laboratory. Baseline weight was used to calculate the dose (in mg/kg). The first order conditional estimation (FOCE) and first-order (FO) method as implemented in NONMEM were used for PK and PK-PD modeling. Model selection criteria included a statistically significant reduction of the objective function value (OFV) (α = 0.05) for nested models, Akaike information criteria for non-nested models, reductions in both residual (σ^2) and inter-subject (ω^2) variability, improvement in the precision of parameter estimates as measured by the percent standard error of the mean (%SEM), and visual examination of standard goodness-of-fit plots. […]
In the study, baseline erythropoietin levels were not measured in all patients. […]
A generalized additive modeling (GAM) approach along with graphical analysis (plots of the inter-subject error terms for each parameter [ηi] versus covariates) was used for initial covariate screening and to determine the functional form of the relationship between the covariates and PK and PD parameters of peginesatide. […] The relationship between continuous covariates and PK and PD parameters were evaluated using linear, exponential and power functions as described in Equations 9, 10, and 11 with the covariates centered or scaled at their median values: [drawing 11] […]
The adequacy of the final PK and PK-PD models was evaluated using a simulation-based prediction-corrected (pc) visual predictive check (VPC) method (1000 replicates). […]

[4] = dialysis patients, cited from earlier work
[5] = Population pharmacokinetic model of peginesatide plasma concentrations (NONMEM); type: in vivo, human; settings: for Subcutaneous bioavailability (F1): fraction
From the text: as §1
The lower and upper limits of quantification for the assay were 25 and 600 ng/mL, respectively.
The concentration of hemoglobin was measured using a standard laboratory method in a Clinical Laboratory Improvement Amendments certified central laboratory. Baseline weight was used to calculate the dose (in mg/kg). The first order conditional estimation (FOCE) and first-order (FO) method as implemented in NONMEM were used for PK and PK-PD modeling. Model selection criteria included a statistically significant reduction of the objective function value (OFV) (α = 0.05) for nested models, Akaike information criteria for non-nested models, reductions in both residual (σ^2) and inter-subject (ω^2) variability, improvement in the precision of parameter estimates as measured by the percent standard error of the mean (%SEM), and visual examination of standard goodness-of-fit plots.
Several different PK models were evaluated as base structural PK models. These included: 1-compartment and 2-compartment with first-order absorption and elimination; 1-compartment and 2-compartment with first-order absorption and Michaelis-Menton (MM) elimination; and a combination of zero- and first-order absorption with linear and MM elimination. Life-span, negative-feedback and precursor-dependent Lifespan Indirect Response (LIDR) models were evaluated as potential base PK-PD models.
In order to avoid possible multicollinearity issues, GAM analyses were performed for PK and PD parameters using different combinations of covariates that were deemed to be highly correlated (r>0.6) along with the remaining covariates. The potential covariates selected following GAM analysis were then tested using a standard approach of stepwise forward addition (P<0.05) followed by stepwise backward elimination procedure (P<0.005). […] The relationship between continuous covariates and PK and PD parameters were evaluated using linear, exponential and power functions as described in Equations 9, 10, and 11 with the covariates centered or scaled at their median values: [drawing 11] [drawing 12] [drawing 13]
The adequacy of the final PK and PK-PD models was evaluated using a simulation-based prediction-corrected (pc) visual predictive check (VPC) method (1000 replicates). Due to the dose adjustment algorithm used in these trials, the pcVPC was utilized. This technique provides an enhanced ability to diagnose possible model misspecification by removing the variability introduced in an ordinary VPC when binning across a potentially large variability in dose or other influential covariates. The percent of observations outside the 90% prediction interval were also calculated to evaluate predictive ability of the model. A non-parametric bootstrap procedure (1000 bootstrap runs) was also employed to evaluate the precision of the parameter estimates and the robustness of the final PK and PK-PD models.
Inter-individual variability (IIV) was estimated for volume of the central compartment (V2), the absorption rate constant (Ka) and the concentration required to reach 50% of maximum rate of elimination (KM) using exponential models, assuming a log-normal distribution for each parameter.

[6] = median bootstrap estimate, 935/1000 converged runs
[7] = final population PK model, 672 CKD patients on/not on dialysis, IV or SC, final estimate (% SEM)
[8] = final population PK model, SC, final estimate (% SEM)
[9] = final population PK model, median bootstrap estimate, 870/1000 converged runs

darbepoetin alfa
EC50 (hemoglobin [1]): 0.41 ng/mL
Emax (hemoglobin [1]): 0.637

methoxy polyethylene glycol-epoetin beta [Micera]
EC50 (hemoglobin [1]): 0.898 ng/mL
Emax (hemoglobin [1]): 0.425

peginesatide
volume of distribution ([2]; healthy volunteers): 0.035 L/kg
half-life (T1/2) ([2]; human, in vivo, sc): 53.0 ± 17.7 h
Drug concentration required for 50% of maximum response (EC50) (hemoglobin [3]; 517 hemodialysis patients, IV or SC, plasma concentration, final estimate (% SEM)): 401 (2.0) ng/mL
Drug concentration required for 50% of maximum response (EC50) (hemoglobin [3]; [6]): 417 ng/mL
Maximum pharmacologic effect (Emax) (hemoglobin [3]; [6]): 0.564
mean volume of distribution ([4]; IV administration, mean ± standard deviation): 0.0349 ± 0.0138 L/kg
accumulation ([4]; IV or SC administration every 4 weeks): No accumulation
bioavailability ([4]; SC administration): approximately 46%
time at which Cmax is reached ([4]; SC administration): approximately 48 hours
effect of concomitant medications on PK or PD parameters ([5]; concomitant medications taken by >10% of the patient population during 80% of the trial period): did not alter
total volume of distribution ([5]; estimated population value, IV and SC administration): 0.043 L/kg
Central volume of distribution (V2) [5, 7]: 35.6 (2.7) mL/kg
Concentration needed to reach 50% of Vmax (KM) [5, 7]: 1880 (14.6) ng/mL
Maximum rate of elimination (Vmax) [5, 7]: 45.3 (10.0) ng/mL/hr
Absorption rate constant (Ka) [5, 8]: 0.00865 (15.6) 1/hr
Subcutaneous bioavailability (F1) [5, 8]: 0.498 (4.4)
Peripheral volume of distribution (V3) ([5]; final population PK model, final estimate (% SEM)): 7.44 (10.3) mL/kg
Subcutaneous bioavailability (F1) [5, 9]: 0.499
Absorption rate constant (Ka) [5, 9]: 0.00869 h⁻¹
Age slope for V2 [5, 9]: –0.125 L/yr
BMI power for V2 [5, 9]: –0.485
Central volume of distribution (V2) [5, 9]: 35.6 mL/kg
Concentration needed to reach 50% of Vmax (KM) [5, 9]: 1860 ng/mL
ETHN shift for Ka [5, 9]: 0.00815 (1/hr)
Maximum rate of elimination (Vmax) [5, 9]: 44.7 ng/mL/h
Peripheral volume of distribution (V3) [5, 9]: 7.42 mL/kg
TBILI slope for V2 [5, 9]: 0.482 L/(g/L)
bioavailability after SC administration ([5]; model estimated, final population PK model): approximately 50%
linearity of pharmacokinetics ([5]; population PK model, over the evaluated dose range): non-linear pharmacokinetics
